Measurements published in patent US9889181B2, “Bacteriophage lysin and antibiotic combinations against gram positive bacteria” (priority 2012, dated 2018).
Read-outs that look alike come from different tables or passages of the source.

Experiments:
Klebsiella spp. = experiment: MIC, human gut bacteria; assay type: cell-based; conditions: N 8
[1] = test system: S. aureus cells (strain MW2); experiment: Electron microscopy of bacteriolysis; assay type: cell-based, Staphylococcus aureus
Text: FIG. 4A-4F provides composite time kill curves of PlySS2 and antibiotics on S. aureus cells in vitro. (A, B) Composite time-kill curves of PlySS2 compared to oxacillin (OXA), vancomycin (VAN), and daptomycin (DAP) against sets of 20 MSSA and 42 MRSA strains, respectively. In each individual analysis, drug concentrations correspond to strain-specific 1×MIC values. Mean values (±standard error of the mean) are shown for each time-point. (C, D) Titration analysis of PlySS2 against sets of 15 contemporary clinical MSSA and MRSA isolates, respectively. In each individual analysis, PlySS2 concentrations correspond to strain-specific MIC values. […] (E,F) Transmission electron micrographs (3300× magnification) of S. aureus cells (strain MW2) before and after 3 second treatment with 8 µg/mL PlySS2. Scale bars correspond to […]. Lysis results in the loss of darkly stained cytoplasmic components.
Rapid-kill kinetics are desirable in the clinical setting to treat patients with fulminant bacterial infections.

MRSA strain 269 (MW2) = experiment: Combination MIC in 15% surfactant (Survanta); assay type: cell-based, Staphylococcus aureus
MRSA strain MW2 = experiment: Murine bacteremia, low challenge model; assay type: in vivo, BALB/c mice; conditions: single dose at 4 hours; 1.25 mg/kg PlySs2, 2 mg/kg daptomycin
[2] = test system: MRSA strain MW2 (also strains 738, 832); assay type: in vivo, BALB/c mice; conditions: 10^9 CFU, dosing at 2 hours, PlySs2 5.25 mg/kg
MRSA = experiment: MIC, broth microdilution (CLSI M07-A9)
VRSA = experiment: MIC, broth microdilution (CLSI M07-A9)
Streptococcus pneumoniae = experiment: MIC, broth microdilution (CLSI M07-A9); conditions: Streptococcus pneumoniae (26)
Listeria monocytogenes = experiment: MIC, broth microdilution (CLSI M07-A9); conditions: Listeria monocytogenes (12)
Acinetobacter baumannii = experiment: MIC, broth microdilution (CLSI M07-A9); conditions: Acinetobacter baumannii (8)
[3] = FIG. 27B, daptomycin 50 mg/kg once daily
[4] = FIG. 27E, vancomycin 110 mg/kg twice daily
[5] = Staphylcoccus aureus Methicillin resistant (120)

B1: PlySs2: bacteriophage lysin derived from Streptococcus suis, amino acid sequence of FIG. 29 (SEQ ID NO: 1) (protein, listed as Streptococcus suis)
chain: MTTVNEALNNVRAQVGSGVSVGNGECYALASWYERMISPDATVGLGAGVGWVSGAIGDTISAKNIGSSYNWQANGWTVSTSGPFKAGQIVTLGATPGNPYGHVVIVEAVDGDRLTILEQNYGGKRYPVRNYYSAASYRQQVVHYITPPGTVAQSAPNLAGSRSYRETGTMTVTVDALNVRRAPNTSGEIVAVYKRGESFDYDTVIIDVNGYVWVSYIGGSGKRNYVATGATKDGKRFGNAWGTFK
Klebsiella spp.
  CF-301 MIC: >512 µg/mL
[1]
  treatment time giving extensive bacteriolysis of S. aureus cocci: 15 s
MRSA strain 269 (MW2)
  effective combination concentration as fraction of the MIC: ⅛
MRSA strain 269 (MW2); 24 hours
  effective concentration in PlySs2 plus daptomycin combination MIC: 2 µg/mL
MRSA strain MW2
  survival at 72 hours: 13%
[2]; [3]
  24 hour survival rate: 56%
  72 hour survival rate: 18%
[2]; [4]
  24 hour survival rate: 60%
  72 hour survival rate: 3%
MRSA; MRSA (n = 45)
  MIC90: 0.15 µM
MRSA; [5]
  MIC 50%: 4 µg/mL
  MIC 90%: 8 µg/mL
  MIC Range: 1 to 16 µg/mL
MRSA; strain MW2, without DTT
  MIC: 32 µg/mL
VRSA; VRSA (n = 14)
  MIC90: 0.08 µM
VRSA; Vancomycin-resistant (14) Staphylococcus aureus
  MIC Range: 1000 to 4000 µg/mL
Streptococcus pneumoniae
  MIC 50%: 16 µg/mL
  MIC 90%: 64 µg/mL
  MIC Range: 1 to 64 µg/mL
Listeria monocytogenes
  MIC 50%: 128 µg/mL
  MIC 90%: 512 µg/mL
  MIC Range: 1 to 512 µg/mL
Acinetobacter baumannii
  MIC 50%: >512 µg/mL
  MIC 90%: >512 µg/mL
  MIC Range: >512 µg/mL
